Data: patent publication US20210190798A1, “METHODS OF QUANTIFYING LIF AND USES THEREOF” (MEDIMMUNE LIMITED, priority 2018, published 2021)

Target: LIF (Homo sapiens, UniProt P15018)
Assay: Competitive binding assays against LIF (capture antibody screening)
Description: The capture antibody A4 (set forth in SEQ ID NOs: 41 and 42) was determined by screening potential antibodies using competitive binding assays against LIF.

LIF, sequence (P15018 23-202): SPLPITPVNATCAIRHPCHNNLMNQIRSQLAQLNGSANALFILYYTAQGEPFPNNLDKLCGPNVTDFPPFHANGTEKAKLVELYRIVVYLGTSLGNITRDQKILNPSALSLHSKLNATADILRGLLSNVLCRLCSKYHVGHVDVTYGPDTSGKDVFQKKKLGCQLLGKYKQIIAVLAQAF

B1: A4: rabbit monoclonal anti-LIF capture antibody, variable regions SEQ ID NOs: 41 and 42 (antibody, V domains shown)
VH: EQLEESVGDLVKPGASLTLTCTASGFSFSGLYYMCWVRQAPGKGLEWIACIWTGSTDSTYYATWAKGRFTISKTSSTTVTLQMTSLTVADTATYFCARGGGVPGDGYALWGPGTLVTVSS
VL: GTELVMTQTPASVSEPVGGTVTINCQASEDISSNLVWYQQKSGQPPKLLIYDASMLASGVPSRFKGSGSGTQFTLTISDLECADGATYYCQSYYVASSSYFVNGFGGGTEVV
binding to LIF: high binding
interference with binding by therapeutic antibody h5D8 or M017C3: did not interfere
